From the supplement of paper PMC10126150
± gives the standard deviation of the averaged measurements.

Test system: ATP
Assay: switch fluorescence ratio, 500 uM ATP over buffer (Cy3 cluster intensity, sum of 5 cycles each) (fold (ratio)); higher = stronger signal-on switching upon ATP binding; sequences stand for … in TCGTCGGCAGCGTCAGATGTGTATAAGAGACAGTTTTTTTTTTTTTTTTTTTTTTTTT…TC
Conditions: aptamer strand: ATP DNA aptamer (quencher-CACCTGGGGGAGTATTGCGGAGGAAGG + anchor), 100 nM annealed; ATP concentration: 500 uM
In short: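 Cy3-labelled switching-strand clusters on a modified Illumina MiSeq flow-cell were annealed to 100 nM quencher-labelled ATP aptamer, imaged in selection buffer, then imaged after 15 min with 500 uM ATP at 22 °C. Five buffer/ATP cycles ran, with NaOH stripping and re-annealing between them. The fluorescence ratio is summed target-cycle over summed buffer-cycle Cy3 intensity per cluster, averaged per switch-domain sequence. Clusters outside 100-1000 RFU were excluded.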
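Further: ATP exposure 15 min at 22 °C before imaging.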

Sequence | switch fluorescence ratio
TTTATACCTT | 1.07 ± 0.1
TTTATATAAT | 0.984 ± 0.038
TTTATATGTT | 1.03 ± 0.04
TTTATCAATT | 0.991 ± 0.063
TTTATCAGTT | 0.951 ± 0.035
TTTATCCGCC | 1.77 ± 0.21
TTTATCCGCG | 1.25 ± 0.25
TTTATCGAGC | 1.02 ± 0.027
TTTATCGGTA | 1.01 ± 0.03
TTTATCGTGG | 0.9721 ± 0.002
TTTATCTGAA | 0.9783 ± 0.0017
TTTATCTTGG | 1.02 ± 0.038
TTTATGAAAG | 0.97 ± 0.05
TTTATGAAGC | 1.06 ± 0.076
TTTATGAGTG | 0.997 ± 0.031
TTTATGCACC | 1.07 ± 0.017
TTTATGCCGG | 1.01 ± 0.029
TTTATGGGGG | 0.999 ± 0.034
TTTATGTGGG | 1.05 ± 0.12
TTTATTAGCA | 0.968 ± 0.05
TTTATTATGT | 0.994 ± 0.034
TTTATTCGGC | 1.02 ± 0.065
TTTATTCGGT | 1.01 ± 0.074

Sequence | switch fluorescence ratio
TTTATTCTAA | 0.976 ± 0.02
TTTATTGAGC | 0.989 ± 0.039
TTTATTGAGG | 1.03 ± 0.011
TTTATTGGGA | 1.07 ± 0.13
TTTATTGTAA | 0.991 ± 0.031
TTTATTGTGC | 1.03 ± 0.054
TTTATTTGCA | 0.9545 ± 0.0068
TTTATTTGTA | 0.99 ± 0.035
TTTATTTGTC | 0.992 ± 0.053
TTTATTTTAT | 1.02 ± 0.057
TTTATTTTCA | 0.9924 ± 0.0046
TTTCAAAAAC | 1.03 ± 0.037
TTTCAAACCC | 0.995 ± 0.013
TTTCAAATTG | 0.973 ± 0.028
TTTCAATGGA | 0.974 ± 0.018
TTTCACTTGG | 1.03 ± 0.027
TTTCAGAAAT | 1.91 ± 1.6
TTTCAGAACT | 1.0027 ± 0.00088
TTTCAGAGTT | 0.993 ± 0.033
TTTCAGTCTA | 1.03 ± 0.024
TTTCAGTTCC | 1.08 ± 0.002
TTTCATACGT | 1.02 ± 0.05
TTTCATAGC | 1.1 ± 0.065

Sequence | switch fluorescence ratio
TTTCATATGG | 0.994 ± 0.024
TTTCATCCTG | 1.0331 ± 0.00038
TTTCATCTCT | 1 ± 0.04
TTTCATGGGT | 1 ± 0.018
TTTCATTATC | 1.02 ± 0.016
TTTCATTGTA | 1.01 ± 0.013
TTTCCACAT | 0.9719 ± 0.0091
TTTCCAGCGT | 1.03 ± 0.036
TTTCCAGGCA | 1.03 ± 0.0051
TTTCCAGGG | 1.17 ± 0.031
TTTCCAGGGA | 1.034 ± 0.0029
TTTCCAGTAA | 1.036 ± 0.0068
TTTCCCAGGA | 1.13 ± 0.038
TTTCCCCTTT | 1.08 ± 0.15
TTTCCCTGGT | 1.12 ± 0.11
TTTCCGCGGA | 0.97 ± 0.024
TTTCCGGAAT | 1.661 ± 0.011
TTTCCGGTTT | 1.6 ± 1.1
TTTCCGTTGG | 1.12 ± 0.17
TTTCCTCCCT | 1.84 ± 0.5
TTTCCTGAGG | 0.991 ± 0.016
TTTCCTGGAT | 1.04 ± 0.052
TTTCCTGGCG | 1.024 ± 0.0089

Sequence | switch fluorescence ratio
TTTCCTTGCT | 1.49 ± 0.59
TTTCGAAACG | 1.12 ± 0.21
TTTCGAAATG | 1.01 ± 0.027
TTTCGAATTG | 0.975 ± 0.019
TTTCGAATTT | 1.02 ± 0.04
TTTCGACGTT | 0.99 ± 0.011
TTTCGAGGCT | 0.976 ± 0.019
TTTCGATAGG | 0.979 ± 0.034
TTTCGCATGA | 1.223 ± 0.006
TTTCGCATTT | 1.14 ± 0.013
TTTCGCCAGA | 1.03 ± 0.0044
TTTCGCCCCT | 1.1 ± 0.062
TTTCGCGATT | 2.32 ± 1.7
TTTCGGAACC | 1.2 ± 0.22
TTTCGGAAGG | 0.988 ± 0.025
TTTCGGAGAG | 0.989 ± 0.037
TTTCGGATCA | 0.9334 ± 0.0044
TTTCGGATGG | 1.03 ± 0.057
TTTCGGCATT | 2.4 ± 1.9
TTTCGGGATT | 1 ± 0.012
TTTCGGGCGG | 0.999 ± 0.038
TTTCGGGGTA | 1 ± 0.045
TTTCGGGGTT | 1.04 ± 0.1

Sequence | switch fluorescence ratio
TTTCGGGTGC | 1.05 ± 0.056
TTTCGGTAGT | 0.995 ± 0.026
TTTCGTATTT | 0.992 ± 0.046
TTTCGTCTGG | 0.955 ± 0.062
TTTCGTGGGA | 0.999 ± 0.04
TTTCGTTATT | 1.34 ± 0.73
TTTCGTTTTA | 0.996 ± 0.033
TTTCTAAGGA | 0.978 ± 0.017
TTTCTAGAGA | 1 ± 0.021
TTTCTAGCGG | 1.01 ± 0.054
TTTCTAGGTG | 2.06 ± 0.23
TTTCTATGCG | 0.959 ± 0.025
TTTCTCAGTG | 0.969 ± 0.011
TTTCTGACGG | 1.35 ± 0.58
TTTCTGGTAA | 1.08 ± 0.034
TTTCTGGTCG | 0.964 ± 0.019
TTTCTGGTGC | 1.16 ± 0.085
TTTCTGGTTG | 1.022 ± 0.0078
TTTCTGTACG | 1.1 ± 0.068
TTTCTGTGCG | 1.001 ± 0.0072
TTTCTGTTCG | 0.989 ± 0.024
TTTCTTCCAT | 1.05 ± 0.1
TTTCTTGGGC | 1.007 ± 0.0018

Sequence | switch fluorescence ratio
TTTCTTGGTA | 1.02 ± 0.024
TTTCTTGGTT | 0.991 ± 0.016
TTTCTTTGTT | 1.04 ± 0.096
TTTGAAAATT | 0.99 ± 0.06
TTTGAAAGGC | 1.76 ± 1.1
TTTGAAAGGT | 1.04 ± 0.072
TTTGAAAGTG | 0.999 ± 0.015
TTTGAAATTT | 1.006 ± 0.0096
TTTGAACGTT | 1 ± 0.037
TTTGAAGGGT | 1.0199 ± 0.00081
TTTGAAGGTG | 1.45 ± 0.17
TTTGAATATA | 0.985 ± 0.022
TTTGAATGAT | 0.984 ± 0.015
TTTGAATGGA | 1 ± 0.012
TTTGAATTAC | 1.17 ± 0.062
TTTGAATTAG | 1 ± 0.039
TTTGAATTGG | 0.996 ± 0.017
TTTGAATTTA | 1 ± 0.039
TTTGACAGCC | 1.06 ± 0.042
TTTGACGGGG | 1.04 ± 0.096
TTTGACTTAG | 1.02 ± 0.043
TTTGACTTTA | 1.003 ± 0.0029
TTTGAGAAAT | 0.994 ± 0.029

Sequence | switch fluorescence ratio
TTTGAGATTT | 0.9974 ± 0.009
TTTGAGGATA | 1.07 ± 0.021
TTTGAGGGGA | 1 ± 0.011
TTTGAGGGGC | 0.995 ± 0.024
TTTGAGGTAA | 1.008 ± 0.0083
TTTGAGGTCC | 1 ± 0.07
TTTGAGGTGC | 1.06 ± 0.031
TTTGAGTATT | 0.992 ± 0.047
TTTGAGTGCT | 0.997 ± 0.029
TTTGAGTTAA | 0.994 ± 0.037
TTTGAGTTGG | 1 ± 0.02
TTTGATAATA | 1.02 ± 0.056
TTTGATACCA | 1.005 ± 0.0051
TTTGATAGGA | 0.975 ± 0.02
TTTGATATCC | 1 ± 0.017
TTTGATATGC | 1.116 ± 0.0054
TTTGATATTC | 0.971 ± 0.022
TTTGATCCTG | 0.9711 ± 0.0081
TTTGATCTGT | 0.984 ± 0.012
